Results taken from US20260217793A1 (Chugai, published 2026).

Key:
[1] = target: T1, FcγRIIa type R extracellular domain with C-terminal His tag (human, UniProt P12318 34-217); test: ratio of SPR KDs vs IL6R-B3/IL6R-L
T1 sequence (looked up): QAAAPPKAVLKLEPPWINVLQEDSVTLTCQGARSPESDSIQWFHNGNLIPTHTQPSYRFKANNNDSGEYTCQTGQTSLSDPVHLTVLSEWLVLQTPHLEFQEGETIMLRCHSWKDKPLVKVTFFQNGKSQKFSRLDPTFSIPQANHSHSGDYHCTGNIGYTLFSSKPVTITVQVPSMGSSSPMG

[2] = target: T2, FcγRIIb extracellular domain with C-terminal His tag (human, UniProt P31994 43-217); test: ratio of SPR KDs vs IL6R-B3/IL6R-L
T2 sequence (looked up): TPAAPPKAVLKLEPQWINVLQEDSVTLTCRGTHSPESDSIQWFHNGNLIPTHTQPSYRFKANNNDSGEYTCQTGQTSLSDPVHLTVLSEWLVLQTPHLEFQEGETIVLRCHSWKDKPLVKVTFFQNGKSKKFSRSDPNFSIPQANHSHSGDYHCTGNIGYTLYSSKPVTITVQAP

[3] = target: T3, FcγRIIa type H extracellular domain with C-terminal His tag (human, UniProt P12318 34-217); test: SPR
T3 sequence (looked up): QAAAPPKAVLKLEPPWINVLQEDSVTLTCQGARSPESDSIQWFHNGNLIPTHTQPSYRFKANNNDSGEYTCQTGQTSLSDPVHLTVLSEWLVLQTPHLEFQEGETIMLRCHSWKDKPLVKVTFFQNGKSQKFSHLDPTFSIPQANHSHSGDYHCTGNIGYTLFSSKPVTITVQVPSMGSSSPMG

[4] = target: FcγRIIIa type V extracellular domain with C-terminal His tag (human, UniProt P08637 17-208); test: SPR
Sequence of FcγRIIIa type V extracellular domain with C-terminal His tag (P08637 17-208 F176V): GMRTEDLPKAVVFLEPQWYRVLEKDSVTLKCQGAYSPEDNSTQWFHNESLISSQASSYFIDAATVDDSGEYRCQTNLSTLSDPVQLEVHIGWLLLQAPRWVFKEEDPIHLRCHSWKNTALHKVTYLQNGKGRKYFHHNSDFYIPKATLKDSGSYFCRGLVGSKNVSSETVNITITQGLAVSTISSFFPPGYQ

[5] = target: T2, FcγRIIb extracellular domain with …; test: ratio of SPR KDs, FcγRIIaR over FcγRIIb, same variant
[6] = target: T4, human FcγRIIa type R (Arg131) extracellular domain with C-terminal His tag (human, UniProt P12318 34-217); test: SPR
T4 sequence (looked up): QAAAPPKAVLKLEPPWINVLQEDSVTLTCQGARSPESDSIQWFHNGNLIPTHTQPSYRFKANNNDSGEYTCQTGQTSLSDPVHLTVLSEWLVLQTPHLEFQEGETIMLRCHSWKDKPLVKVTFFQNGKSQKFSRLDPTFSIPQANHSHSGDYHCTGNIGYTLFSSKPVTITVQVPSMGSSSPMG

[7] = target: T5, human FcγRIIb extracellular domain with C-terminal His tag (human, UniProt P31994 43-217); test: SPR
T5 sequence (looked up): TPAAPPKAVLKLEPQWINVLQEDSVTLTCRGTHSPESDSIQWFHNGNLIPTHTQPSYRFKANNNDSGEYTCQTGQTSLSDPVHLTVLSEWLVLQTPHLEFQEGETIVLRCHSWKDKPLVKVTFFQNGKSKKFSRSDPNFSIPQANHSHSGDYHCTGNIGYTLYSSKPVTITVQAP

[8] = target: T6, human FcγRIIa type H (His131) extracellular domain with C-terminal His tag (human, UniProt P12318 34-217); test: SPR
T6 sequence (looked up): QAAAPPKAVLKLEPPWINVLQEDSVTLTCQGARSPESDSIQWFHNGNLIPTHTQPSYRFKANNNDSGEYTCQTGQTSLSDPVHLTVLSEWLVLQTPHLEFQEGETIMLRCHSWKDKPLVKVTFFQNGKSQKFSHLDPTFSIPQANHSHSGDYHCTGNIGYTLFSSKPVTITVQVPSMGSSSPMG

[9] = target: human FcγRIIIa type V (Val158) extracellular domain with C-terminal His tag (human, UniProt P08637 17-208); test: SPR
Sequence of human FcγRIIIa type V (Val158) extracellular domain with C-terminal His tag (P08637 17-208 F176V): as the sequence (P08637 17-208 F176V) above

Binder	KD (IIaR) of parent polypeptide/KD (IIaR) of altered polypeptide [1]	KD (IIb) of parent polypeptide/KD (IIb) of altered polypeptide [2]	Kd [3]	Kd [4]	KD (IIaR)/KD (IIb) [5]	KD (IIaR) of parent polypeptide/KD (IIaR) of altered polypeptide [6]	KD (IIb) of parent polypeptide/KD (IIb) of altered polypeptide [7]	Kd [8]	Kd [9]
IL6R-BP541/IL6R-L (antibody, human IgG1, kappa) heavy: QVQLQESGPGLVKPSETLSLTCAVSGHSISHDHAWSWVRQPPGEGLEWIGFISYSGITNYNPSLQGRVTISRDNSKNTLYLQMNSLRAEDTAVYYCARSLARTTAMDYWGEGTLVTVSSASTKGPSVFPLAPSSKSTSGGTAALGCLVKDYFPEPVTVSWNSGALTSGVHTFPAVLQSSGLYSLSSVVTVPSSSLGTQTYICNVNHKPSNTKVDKKVEPKSCDKTHTCPPCPAPDLLGDDSVFLFPPKPKDTLMISRTPEVTCVVVDVSDEDGEVQFNWYVDGVEVHNAKTKPREEQDNSTYRVVSVLTVLHQDWLNGKEYKCKVSNKALPRPIEKTISKAKGQPREPQVYTLPPSRDELTKNQVSLTCLVKGFYPSDIAVEWESNGQPENNYKTTPPVLDSDGSFFLYSKLTVDKSRWQQGNVFSCSVMHEALHNHYTQESLSLSP light: not shown	2.4	190	9.3 µM	41 µM	27.8	–	–	–	–
IL6R-BP543/IL6R-L (antibody, human IgG1, kappa) heavy: QVQLQESGPGLVKPSETLSLTCAVSGHSISHDHAWSWVRQPPGEGLEWIGFISYSGITNYNPSLQGRVTISRDNSKNTLYLQMNSLRAEDTAVYYCARSLARTTAMDYWGEGTLVTVSSASTKGPSVFPLAPSSKSTSGGTAALGCLVKDYFPEPVTVSWNSGALTSGVHTFPAVLQSSGLYSLSSVVTVPSSSLGTQTYICNVNHKPSNTKVDKKVEPKSCDKTHTCPPCPAPDLLGDDSVFLFPPKPKDTLMISRTPEVTCVVVDVSQEDGEVKFNWYVDGVEVHNAKTKPREEQDNSTYRVVSVLTVLHQDWLNGKEYKCKVSNKALPRPIEKTISKAKGQPREPQVYTLPPSRDELTKNQVSLTCLVKGFYPSDIAVEWESNGQPENNYKTTPPVLDSDGSFFLYSKLTVDKSRWQQGNVFSCSVMHEALHNHYTQESLSLSP light: not shown	1.9	152	7.4 µM	46 µM	27.3	–	–	–	–
IL6R-BP544/IL6R-L (antibody, human IgG1, kappa) heavy: QVQLQESGPGLVKPSETLSLTCAVSGHSISHDHAWSWVRQPPGEGLEWIGFISYSGITNYNPSLQGRVTISRDNSKNTLYLQMNSLRAEDTAVYYCARSLARTTAMDYWGEGTLVTVSSASTKGPSVFPLAPSSKSTSGGTAALGCLVKDYFPEPVTVSWNSGALTSGVHTFPAVLQSSGLYSLSSVVTVPSSSLGTQTYICNVNHKPSNTKVDKKVEPKSCDKTHTCPPCPAPDLLGDDSVFLFPPKPKDTLMISRTPEVTCVVVDVSDEDGEVKFNWYVDGVEVHNAKTKPREEQDNSTYRVVSVLTVLHQDWLNGKEYKCKVSNKALPRPIEKTISKAKGQPREPQVYTLPPSQDELTKNQVSLTCLVKGFYPSDIAVEWESNGQPENNYKTTPPVLDSDGSFFLYSKLTVDKSRWQQGNVFSCSVMHEALHNHYTQESLSLSP light: not shown	2.2	184	12 µM	45 µM	28.8	–	–	–	–
IL6R-BP549/IL6R-L (antibody, human IgG1, kappa) heavy: QVQLQESGPGLVKPSETLSLTCAVSGHSISHDHAWSWVRQPPGEGLEWIGFISYSGITNYNPSLQGRVTISRDNSKNTLYLQMNSLRAEDTAVYYCARSLARTTAMDYWGEGTLVTVSSASTKGPSVFPLAPSSKSTSGGTAALGCLVKDYFPEPVTVSWNSGALTSGVHTFPAVLQSSGLYSLSSVVTVPSSSLGTQTYICNVNHKPSNTKVDKKVEPKSCDKTHTCPPCPAPELLGDDSVFLFPPKPKDTLMISRTPEVTCVVVDVGEEDGEVKFNWYVDGVEVHNAKTKPREEQYNSTYRVVSVLTVLHQDWLNGKEYKCKVSNKALPRPIEKTISKAKGQPREPQVYTLPPSRDELTKNQVSLTCLVKGFYPSDIAVEWESNGQPENNYKTTPPVLDSDGSFFLYSKLTVDKSRWQQGNVFSCSVMHEALHNHYTQESLSLSP light: not shown	–	–	–	–	–	1.9	196	11 µM	24 µM
IL6R-BP559/IL6R-L (antibody, human IgG1, kappa) heavy: QVQLQESGPGLVKPSETLSLTCAVSGHSISHDHAWSWVRQPPGEGLEWIGFISYSGITNYNPSLQGRVTISRDNSKNTLYLQMNSLRAEDTAVYYCARSLARTTAMDYWGEGTLVTVSSASTKGPSVFPLAPSSKSTSGGTAALGCLVKDYFPEPVTVSWNSGALTSGVHTFPAVLQSSGLYSLSSVVTVPSSSLGTQTYICNVNHKPSNTKVDKKVEPKSCDKTHTCPPCPAPELLGGDSVFLFPPKPKDTLMISRTPEVTCVVIDVAEEDGDVKFNWYVDGVEVHNAKTKPREEQDNSTYRVVSVLTVLHQDWLNGKEYKCKVSNKALPAPIEKTISKAKGQPREPQVYTLPPSRDELTKNQVSLTCLVKGFYPSDIAVEWESNGQPENNYKTTPPVLDSDGSFFLYSKLTVDKSRWQQGNVFSCSVMHEALHNHYTQESLSLSP light: not shown	–	–	–	–	–	0.7	110	20 µM	44 µM
IL6R-BP560/IL6R-L (antibody, human IgG1, kappa) heavy: QVQLQESGPGLVKPSETLSLTCAVSGHSISHDHAWSWVRQPPGEGLEWIGFISYSGITNYNPSLQGRVTISRDNSKNTLYLQMNSLRAEDTAVYYCARSLARTTAMDYWGEGTLVTVSSASTKGPSVFPLAPSSKSTSGGTAALGCLVKDYFPEPVTVSWNSGALTSGVHTFPAVLQSSGLYSLSSVVTVPSSSLGTQTYICNVNHKPSNTKVDKKVEPKSCDKTHTCPPCPAPELLGGDSVFLFPPKPKDTLMISRTPEVTCVVVDVGEEDGEVKFNWYVDGVEVHNAKTKPREEQDNSTYRVVSVLTVLHQDWLNGKEYKCKVSNKALPRPIEKTISKAKGQPREPQVYTLPPSRDELTKNQVSLTCLVKGFYPSDIAVEWESNGQPENNYKTTPPVLDSDGSFFLYSKLTVDKSRWQQGNVFSCSVMHEALHNHYTQESLSLSP light: not shown	–	–	–	–	–	0.3	16.8	31 µM	41 µM
IL6R-BP562/IL6R-L (antibody, human IgG1, kappa) heavy: QVQLQESGPGLVKPSETLSLTCAVSGHSISHDHAWSWVRQPPGEGLEWIGFISYSGITNYNPSLQGRVTISRDNSKNTLYLQMNSLRAEDTAVYYCARSLARTTAMDYWGEGTLVTVSSASTKGPSVFPLAPSSKSTSGGTAALGCLVKDYFPEPVTVSWNSGALTSGVHTFPAVLQSSGLYSLSSVVTVPSSSLGTQTYICNVNHKPSNTKVDKKVEPKSCDKTHTCPPCPAPELLGDDSVFLFPPKPKDTLMISRTPEVTCVVVDVSDEDGDVKFNWYVDGVEVHNAKTKPREEQDNSTYRVVSVLTVLHQDWLNGKEYKCKVSNKALPRPIEKTISKAKGQPREPQVYTLPPSRDELTKNQVSLTCLVKGFYPSDIAVEWESNGQPENNYKTTPPVLDSDGSFFLYSKLTVDKSRWQQGNVFSCSVMHEALHNHYTQESLSLSP light: not shown	–	–	–	–	–	1.6	131	11 µM	53 µM
IL6R-BP564/IL6R-L (antibody, human IgG1, kappa) heavy: QVQLQESGPGLVKPSETLSLTCAVSGHSISHDHAWSWVRQPPGEGLEWIGFISYSGITNYNPSLQGRVTISRDNSKNTLYLQMNSLRAEDTAVYYCARSLARTTAMDYWGEGTLVTVSSASTKGPSVFPLAPSSKSTSGGTAALGCLVKDYFPEPVTVSWNSGALTSGVHTFPAVLQSSGLYSLSSVVTVPSSSLGTQTYICNVNHKPSNTKVDKKVEPKSCDKTHTCPPCPAPELLGDDSVFLFPPKPKDTLMISRTPEVTCVVVDVSEEDGDVKFNWYVDGVEVHNAKTKPREEQDNSTYRVVSVLTVLHQDWLNGKEYKCKVSNKALPRPIEKTISKAKGQPREPQVYTLPPSRDELTKNQVSLTCLVKGFYPSDIAVEWESNGQPENNYKTTPPVLDSDGSFFLYSKLTVDKSRWQQGNVFSCSVMHEALHNHYTQESLSLSP light: not shown	–	–	–	–	–	1.9	141	10 µM	49 µM
